Experiment: label from the status in PepcDB records

Sequence | protein production
MITTIISSVVAFATTNIDDIFILLVLFSQVRTEVIRKEGRAVREKATRKKLYIVIGQYLGFSMIIFLSIIGSLSSFFIPVSWIGLLGFVPIYMGVKGLLSLRSYKSNEVIDNVTVSLFKVASITLANGADNISIYIPMFASQTLETNIVTLVIFFSMIAIWCFISYKLIKAPILAKVLEENCHIIVPIVLIGLGMFILFRSGTIGLFS | failed
MTREIIPILPEAPVETARSGNALPLLREIAEHLHHLLETGEASTIDLSALPLTPGDLEWLRAELGGGEVSVTLHADGASTLDETAFPGVWWIIHRNAQGAVTTQFIEVAFVPELVKSPRADVAAARAALVLRMADL | not failed
MIIAIPVSENRGKDSPISEHFGRAPYFAFVKVKNNAIADISVEENPLAQDHVHGAVPNFVKEKGAELVIVRGIGRRAIAAFEAMGVKVIKGASGTVEEVVNQYLSGQLKDSDYEVHDHHHHEHH | not failed
MEAPTVLDVGCGDGARTLANLPPRSVGLDFSRAGLDLAAETVPDSRLVQGDMGSLPVTTDSVDAITAYHAVFHVQRDQHPEVYREFARVLRPGGTVLMTLPSGQFETVRRGWMGGSMFFSAPGRRATLDQLADAGFTETETVTATDPLGSDSEFVFATLADALEHHHHHH | failed
MAEAHVTKVGIVGIGFIGSDHLHRLTKTVANVDVTAVCDIVPGKAQKALDQQGLTATTYEDYHDLVNDPNVEVVVCTANNEAHYEIVMAALKAGKFTFCEKPLALDAKQCMDIIDSEKKLGRRMLQVGFMRHYAPEYVQMKKMIDDGVIGKPLMMDQRHYNQTQPEEYDSSRSIIETAIHEIDIDHWLVNDDYANIRVFSPKQTRHVQNAKIQDPQIVMIETKSGINIINEVFVRCQYGYDIKCDVIGEEGVLELPTVPQVATRLNAQYSTAILTDWKARFESAYDIEFRDFINHVSQNESPVGPSAWDGYIAAVTADAALKSLAEDGAKQDLDFPSTPAFYTESEKVSE | failed
MKILPFIARGTSYYLKMSVKKLVPFLVVGLMLAAGDSVYAYSRGNGSIARGDDYPAYYKNGSQEIDQWRMYSRQCTSFVAFRLSNVNGFEIPAAYGNANEWGHRARREGYRVDNTPTIGSITWSTAGTYGHVAWVSNVMGDQIEIEEYNYGYTESYNKRVIKANTMTGFIHFKDLDGGSVGNSQSSTSTGGTHYFKTKSAIKTEPLASGTVIDYYYPGEKVHYDQILEKDGYKWLSYTAYNGSYRYVQLEAVNKNPLGNSVLSSTGGTHYFKTKSAIKTEPLVSATVIDYYYPGEKVHYDQILEKDGYKWLSYTAYNGSRRYIQLEGVTSSQNYQNQSGNISSYGSHSSSTVGWKKINGSWYHFKSNGSKSTGWLKDGSSWYYLKLSGEMQTGWLKENGLWYYLGSSGAMKTGWYQVSGKWYYSYSSGALAVNTTVDGYRVNSDGERV | failed
MGHHHHHHSHMLPPEQWSHTTVRNALKDLLKDMNQSSLAKECPLSQSMISSIVNSTYYANVSAAKCQEFGRWYKHFKKTKDMM | not failed
PLTTHNMNSSTSNKVALNAAREGIVLLKNQGDLLPLDKQKVKKIAVVGTLAKYAPPTGFGSANVMASHYVSELSGLQQMAPNAKVEFIDGLSLDPSTSAWNTTDAAGNSVQGMKVEYFSNTNWSGDAAVTRTEQHVDLDWANDKNLPFESNTSTSDPYTTKGSTAGELNGDTSSTSIRYTGKITPTQSGEQVFKVRADGAVRLWVNGKKIIDNGDGKPLPGNSIPPTIPEFAKINLEAGQSYDVKLEYSRRAGYLSTMGGLVGVQLSSASLNAPQDLSGYDAVVVAVGNSNEYEGEGFDHSFDLPEFQNELIQNIAKVNPNTVVTMYGGTGLKMSDWIEQVPVALHAFYPGQNGGQALAEILFGKINPSGKLPISIERNIEDNPAYASFPKFDNQNTLAEMDYKDDLMLGYRGYEKKGIKPLYPFGYGL | failed
MSGFHYPGVPVTALLYSLWPLFALIVGGYALRRWDFPGEAFWPAAERLNYFILFPALLFSNLATAPLDDPGLARQALAVLLGLGVAWLALLLCKRWRGWDAGRFGAIAQGVLRFNTYLGLAAVGSLYGKPGLTLAALMLALMVPTVNVMSVWALTAERGISLRALLLPILKNPLILACLAGALVNLAGVGLPGGSDRLLNLLAVASLPLGLLCVGAALKPQELGGEVAALGWNCAARLLAMPLLAFAIARGLGLPSMESAVLVLFFALPTAPTAYVLTRQLGGDGHLMAGIITLQTLLSGATLVGVLLVLQGSP | failed
MMNIRSKYAVYIFPLLLILFFVGTASALPTVAHDRVQGEMYVASTANWDSHYSTNSFDVPNGTVVFARYYVGVWASGTPSSISATFNGHAFETNPSYYISGMGVTWIPFNVTDYVQPGETNTATIDSSHWGDGRQYGSTLVVVLENENKPEVEYWIAEGLDWVIGYGSSTTYFNDTNIDLDDVDSASLYSTILTGYSSESLNGESLSGAVDSVSGAYFNYIRWDNVKDSLTAENQTIKVVGDGDYTSAVLHGLSITYKIPDLVPTSLTPSYVTPGTVNTMTATIENTDKDSPSFNVSLIADGTVVDTQDVSGIAAGGSTTVDLQWTPEGGKDSYSLTVVVDPDNSVVESEETNNELTVLVGSASVEVPVANFTAVPTSGSIPLTVNFTDQSTNSPTSWFWDFGDGENSTSQNPSHTYTSVGNHTVSLTVTNAEGSDSEVKTDYITVEVITPVAAFTADNTSGAAPFTVQFTDQSANLPAEWFWDFGDGTNSTEQNPAHTYITAGKYTVKLTTANAAGNDSEEKTDYITAYIPPVANFTATPTSGGAPLTVTFTDTSTNMPTEWLWDFGDGVNSTDQNPIHTYTSAGNYTVSFTATNSGGSDSELKTAYITVTAEAGKGGLADTAWPKFHYDLGNTGQSPYTGPQTANVVWTYTTTGEMRLGQGAVIGSDGTMYIGDRSGTLYAINPNGTLKWGTSIGTKSFPTPAIASDGTIYAGGNDKIVYAINPDGSIKWSYPVGTKSVISSPAIASDGTIYFATSTNLFALKPDGTLKWNSAVSYGGYNYFSPAIGSDGTIYLGTYGGALSAINADGTLKWTYSIPAPNNYIYDTPAIASDGTIYFGCNNANLYALNPDGTLKWTYSVGTSASQAIKSSPAIGSDGTIYFGSNNQYFYALYPDGTLKWSSKAGSFGQTTPTIGSDGTIYIDNYGSKTLYAFNPDGTVKWSYADGNYNYASPAIASDGTLYFGKGYTVYAFRDVAPVSNFTADPTSGTAPLTVNFTDQSTGSPTSWFWDFGDGANSTEQNPVHTYSVAGNYTTNLTVTNSAGTDFEVKTDYITVLEPSTPEPEPVAAFTADVTSGSAPLTVNFTDQSTGSPTSWLWDFGDGTNSTEQNPVHTYASAGSYTVNLTVENDAGSDFELKTDYIEVSEISGSTVTLYFDPESSSVAENESTEISLVASNFPAGLSGYNLTVAIDDPAVAEIVGIEYPTWALITENSTLPGTSIYMKTVDLEDSIKEEEGEVVLATLTVSGKEKGSANISIGVKRLEDDSGDSIEPALLTGTIEVTILSLLPDQEYAPKDLDGDGLYEDLTGNGEFSFVDIVAYFHNMDWIEENMPVEYFDFNGNGRIDFDDVVDMFAMI | failed
MSKPFMFEKPFGMRDTLPEWYKTKKNICDQMTEEINLWGYDMIETPTLEYYETVGVVSAILDQQLFKLLDQQGNTLVLRPDMTAPIARLVASSLKDRAYPLRLAYQSNVYRAQQNEGGKPAEFEQLGVELIGDGTASADGEVIALMIAALKRAGLSEFKVAIGHVGYVNALLMDVVGNEQRADRLRRFLYEKNYVGYREHVKSLNLSTIDKSRLMNLLSLRGGRAAIEEARGLIQTEKGKTALAEMTKLYEVLESYGASEYVKFDLTLVLHMSYYTGVVFEGYGNRLGVPLCSGGRYDELLSKFHRPAQATGFGVRIDLLVEALNGEIISNGHEQTCILFSNERRFEAIELARKKRANGEAVVLQDLAGVTDVDAMSSNYQDVIYCIGTAGRGGEDA | not failed
HPMCKEHEDEKINIYCLTCEVPTCSMCKVFGIHKACEVAPLQSVFQGQKTE | not failed
MKRRLLCALLASTLAQPLTVRADLPDLGEISDASLSLSDEARIGRDALRAMREAGDVVDDPEVNAYLNDVGGRLAAAAAVPGVRFTYFCVADAGINAFAMPGGYVGINIGLMLASQSEGELAAVLGHETAHVAQRHIARMQAANSAASPLLLLGTIVAAALAAKAGSGDGAMGAVSAGMGLSISRQLAFSRDFEREADRVGMQYMSAAGFDVRNMAAFFQRLEQASRYSDNTAYAFLRTHPVTLERISEAQNRALDYPVRMRADSVDYLLVREKLRVLTLSPEEAVSHYSSALQRGLYLNEGANWYGLARAKLLQHDRAGASEALAKARAKLPDNPMLYGLEVEIARDGRDWAAAARAARNGLSAFPRSVSLQLAQLDVALDGGDRKAAQAQLRQLLDSRRDDPALYRREAKLYADKDPLRYHAALGNAFYYEQRYGAALEQYQLAGKAKGDDFYLRSMLEARLREVEKLAKEERKAARNLEHHHHHH | not failed

Source: a protein production outcome set (Wang et al. 2014)
